B1: 1CP-117-MMAE (antibody, human IgG1, kappa, V domains shown)
VH: QVQLVQSGSELKKPGASVKVSCKASGYTLTDFSMHWVRQAPGQGLEWMGWINTETGAPTYADDFKGRFVLSLDTSVSTAYLQISSLKAEDTAVYYCSRGRDYDPHFDYWGQGTLVTVSS
VL: EIVLTQSPATLSLSPGERATLSCRASQSISDFLHWYQQKPGQSPRLLIKYASQSISGIPARFSGSGSGSDFTLTISSVEPEDFAVYYCQSAHSFPYTFGQGTKLEIKR
modifications: vc-MMAE coupled after reduction, sites not stated; DAR 4.8
B2: SB8 (antibody, V domains shown)
VH: QVTLKESGPGILKPSQTLSLTCSFSGFSLSTSGVGVGWIRQPSGKGLEWLAHIWWDDEKYYNPSLKSHFTISKDTSRNQVFLKITSVDTADTATYYCVKEGDGMDYWGQGTSVTVSS
VL: QAVVTQESALTTSPGETVTLTCRSSTGAVATSNYANWVQEKPDHLFTGLIGGTNNRVPGVPARFSGSLIGDKAALTITGAQTEDEAIYFCALWYSNHWVFGGGTKLTVL
notes: single B cell antibody, expressed in CHO
B3: SB9 (antibody, V domains shown)
VH: DVKLVESGGGLVKPGGSLKLSCAASGFTFSSFTMSWVRQTPEKRLEWVATISSSGSYTYYPDSVKGRFTISRDNAKNTLYLQMSSLKSEDTAMYYCTSPDYYGRSYGYFDYWGQGTTLTVSS
VL: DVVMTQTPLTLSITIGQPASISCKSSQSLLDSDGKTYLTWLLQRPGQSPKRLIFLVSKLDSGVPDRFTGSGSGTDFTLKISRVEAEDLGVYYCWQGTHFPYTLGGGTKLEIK
notes: as for B2
B4: SB5 (antibody, V domains shown)
VH: QVQLRESGPGLVAPSQSLSITCTVSGFSLTDFGVNWVRQPPGKGLEWLGIIWANGRIEYNSALKSRLSISKDNSRSQVFLKLNSLQTDDTARYYCARDHDYDVEAMDYWGQGTSVTVSA
VL: QIVLTQSPAIKSASPGEKVTMTCSASSSVIYMHWYQQKSGSSPKRWIYDTSKLASGVPVRFSGSGSGTSYSLTISTMEAEDAATYYCQQWSSYPPTFGGGTKVEIK
notes: as for B2
B5: 1CP-152-MMAE (antibody, human IgG1, kappa, V domains shown)
VH: EVQLVESGGGLVQPGRSLRLSCTTSGLTFTHYHMSWVRQAPGKGLEWVAIIRNKAYGYTTDYSASVRGRFTISRDDSKSILYLQMNSLKTEDTAVYYCVREGGYGYDGTFAYWGQGTLVTVSS
VL: DIQMTQSPSSLSASVGDRVTITCRASESVDNYGISFMNWFQQKPGQAPKLLIYAASNQGSGVPSRFSGSGSGTDFTLTISSMQPEDFATYYCQQSKEVPRTFGGGTKVEIKR
modifications: vc-MMAE coupled after reduction, sites not stated; DAR 4.5

Columns and labels:
[1] = target: T1, human CDCP1 on tumor cells (human, UniProt Q9H5V8 30-836); test: cell-based or functional assay
T1 sequence (looked up): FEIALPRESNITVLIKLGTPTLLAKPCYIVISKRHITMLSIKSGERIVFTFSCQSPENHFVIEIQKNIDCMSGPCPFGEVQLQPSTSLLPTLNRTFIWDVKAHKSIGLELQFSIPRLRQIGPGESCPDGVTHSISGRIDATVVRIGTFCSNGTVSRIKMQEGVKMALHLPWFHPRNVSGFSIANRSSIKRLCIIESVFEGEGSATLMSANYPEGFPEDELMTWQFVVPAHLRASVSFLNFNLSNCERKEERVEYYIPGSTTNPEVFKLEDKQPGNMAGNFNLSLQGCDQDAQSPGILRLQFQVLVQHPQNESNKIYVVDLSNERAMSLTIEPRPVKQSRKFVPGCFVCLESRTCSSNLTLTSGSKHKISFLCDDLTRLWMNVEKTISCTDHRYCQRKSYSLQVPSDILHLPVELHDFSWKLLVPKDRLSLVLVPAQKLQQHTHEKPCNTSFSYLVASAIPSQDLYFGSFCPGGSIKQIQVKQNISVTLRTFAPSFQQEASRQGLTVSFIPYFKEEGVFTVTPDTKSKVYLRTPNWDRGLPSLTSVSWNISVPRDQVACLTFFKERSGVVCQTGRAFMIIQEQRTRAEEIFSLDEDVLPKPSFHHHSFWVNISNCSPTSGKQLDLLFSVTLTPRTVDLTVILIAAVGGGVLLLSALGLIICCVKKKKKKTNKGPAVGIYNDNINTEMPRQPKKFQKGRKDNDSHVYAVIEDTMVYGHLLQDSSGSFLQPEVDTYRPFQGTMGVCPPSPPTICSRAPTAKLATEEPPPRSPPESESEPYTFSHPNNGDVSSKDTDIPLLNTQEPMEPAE

[2] = target: T1, human CDCP1 on tumor cells; test: cell-based or functional assay; remark: listed apart in the source
[3] = target: T1, human CDCP1 on tumor cells; test: flow cytometry, MDA-MB-231 cells, 1.5 µg/ml
Method: Flow cytometry was used to detect the binding capacity of antibody to tumor cells. MDA-MB-231 cells were subjected to digestion with 5 mM EDTA, centrifuged, and counted, the cells were resuspended with FACS buffer (PBS+2% FBS). Cell density was adjusted to 4×10⁵/ml, 50 μL (2×10⁴ tumor cells) were added per well, an Fc blocker (Human TruStain FcX™, Biolegend, 422302) was added for blocking at room temperature for 10 mins, then the antibody to be tested was added at a final concentration of 1.5 μg/ml. The mixture was incubated out at 4° C. for 30 mins, centrifuged and washed, a secondary antibody (PE anti-human IgG Fc Antibody, Biolegend, 410708) was added for incubation, and then detection was performed using a flow cytometer. Geo-MFI was used as the preliminary criterion for determining antibody-cell binding.

HuCDCP1-C = target: T2, HuCDCP1-C (human, UniProt Q9H5V8 30-667); test: ELISA, coated antigen
T2 construct: range 30-667; expressed in HEK-293T, purified by Fc/his tag; also called human CDCP1-C; full-length extracellular domain of human CDCP1; not shown: Fc or his tag
T2 sequence (looked up): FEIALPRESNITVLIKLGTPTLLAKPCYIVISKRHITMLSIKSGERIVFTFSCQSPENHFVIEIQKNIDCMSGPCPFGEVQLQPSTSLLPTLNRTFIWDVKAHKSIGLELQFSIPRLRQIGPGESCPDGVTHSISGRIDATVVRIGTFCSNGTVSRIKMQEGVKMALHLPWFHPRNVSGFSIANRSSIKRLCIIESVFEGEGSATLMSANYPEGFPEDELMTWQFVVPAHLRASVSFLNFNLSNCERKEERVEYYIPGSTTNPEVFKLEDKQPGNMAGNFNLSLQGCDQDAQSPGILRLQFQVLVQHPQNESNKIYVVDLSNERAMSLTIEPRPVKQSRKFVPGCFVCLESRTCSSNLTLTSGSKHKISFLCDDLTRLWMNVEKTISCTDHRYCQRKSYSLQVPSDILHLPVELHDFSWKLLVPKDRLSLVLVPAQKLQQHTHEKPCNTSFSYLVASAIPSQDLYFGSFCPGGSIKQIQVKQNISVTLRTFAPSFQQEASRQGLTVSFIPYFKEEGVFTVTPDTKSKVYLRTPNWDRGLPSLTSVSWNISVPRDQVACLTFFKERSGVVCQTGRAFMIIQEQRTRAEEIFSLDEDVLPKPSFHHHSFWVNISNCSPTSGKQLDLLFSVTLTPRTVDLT
Method: (§1) The candidate antibodies obtained from Example 6 were subjected to gene cloning, constructed into an expression vector for a small amount of expression in CHO cells, and purified with an Fc affinity column (AT Protein A Diamond Plus. No. AA402312). Antibody purity was analyzed by HPLC and determined by Nanodrop. High-throughput affinity assay was carried out for a small amount of antibodies by Caterra. […] At the same time, 2 μg/ml antigen human CDCP1-C and 2 μg/ml human CDCP1-B were used for coating, and the antigen-antibody binding capacity was tested by ELISA for verification.

HuCDCP1-B = target: T3, HuCDCP1-B (human, UniProt Q9H5V8 343-667); test: ELISA, coated antigen
T3 construct: range 343-667; expressed in HEK-293T, purified by Fc/his tag; also called human CDCP1-B; membrane-proximal region of CDCP1; not shown: Fc or his tag
T3 sequence (looked up): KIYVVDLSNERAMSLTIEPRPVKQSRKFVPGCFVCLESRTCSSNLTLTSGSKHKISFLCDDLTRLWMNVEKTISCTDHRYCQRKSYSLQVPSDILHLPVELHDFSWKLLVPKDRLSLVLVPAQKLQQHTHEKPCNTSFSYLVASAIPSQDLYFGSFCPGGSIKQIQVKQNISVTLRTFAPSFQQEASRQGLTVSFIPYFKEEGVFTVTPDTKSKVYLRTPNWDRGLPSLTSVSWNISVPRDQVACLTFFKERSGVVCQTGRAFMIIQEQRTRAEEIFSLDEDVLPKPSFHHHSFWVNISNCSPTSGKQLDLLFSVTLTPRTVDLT
Method: as §1

huCDCP1-his = target: T4, huCDCP1-his (human, UniProt Q9H5V8 30-667, limits assumed); test: SPR (Caterra), antigen immobilized
T4 construct: also called human CDCP1 antigen; not shown: his tag
T4 sequence (looked up): T2 sequence (looked up)
Method: as §1

| Binder | IC50 (nM), killing of HCC1806 cells (120 h), CellTiter-Glo [1] | IC50 (nM), killing of HCT116 cells (120 h), CellTiter-Glo [2] | binding result [3] | further results |
| --- | --- | --- | --- | --- |
| B1 | 0.894 nM | 1.51 nM | – | – |
| B2 | – | – | binds | – |
| B3 | – | – | binds | – |
| B4 | – | – | – | EC50 (HuCDCP1-C): 0.413 nM; EC50 (HuCDCP1-B): 0.208 nM; Kd (huCDCP1-his): 0.835 nM |
| B5 | 0.734 nM | 1.27 nM | – | – |
